{"source": "patent US20110172126A1", "about": "“LIBRARIES OF PEPTIDE CONJUGATES AND METHODS FOR MAKING THEM” (XENOME LTD, priority 2008, published 2011)", "type_in_all_cases": "binding", "key": {"[1]": {"target": "T1, rat sodium channel 1.2 (rNav1.2) (Rattus norvegicus, UniProt P04775)", "T1 construct": "from tissue; host or cells: rat brain homogenate / rat brain membrane", "T1 sequence (P04775 whole entry)": "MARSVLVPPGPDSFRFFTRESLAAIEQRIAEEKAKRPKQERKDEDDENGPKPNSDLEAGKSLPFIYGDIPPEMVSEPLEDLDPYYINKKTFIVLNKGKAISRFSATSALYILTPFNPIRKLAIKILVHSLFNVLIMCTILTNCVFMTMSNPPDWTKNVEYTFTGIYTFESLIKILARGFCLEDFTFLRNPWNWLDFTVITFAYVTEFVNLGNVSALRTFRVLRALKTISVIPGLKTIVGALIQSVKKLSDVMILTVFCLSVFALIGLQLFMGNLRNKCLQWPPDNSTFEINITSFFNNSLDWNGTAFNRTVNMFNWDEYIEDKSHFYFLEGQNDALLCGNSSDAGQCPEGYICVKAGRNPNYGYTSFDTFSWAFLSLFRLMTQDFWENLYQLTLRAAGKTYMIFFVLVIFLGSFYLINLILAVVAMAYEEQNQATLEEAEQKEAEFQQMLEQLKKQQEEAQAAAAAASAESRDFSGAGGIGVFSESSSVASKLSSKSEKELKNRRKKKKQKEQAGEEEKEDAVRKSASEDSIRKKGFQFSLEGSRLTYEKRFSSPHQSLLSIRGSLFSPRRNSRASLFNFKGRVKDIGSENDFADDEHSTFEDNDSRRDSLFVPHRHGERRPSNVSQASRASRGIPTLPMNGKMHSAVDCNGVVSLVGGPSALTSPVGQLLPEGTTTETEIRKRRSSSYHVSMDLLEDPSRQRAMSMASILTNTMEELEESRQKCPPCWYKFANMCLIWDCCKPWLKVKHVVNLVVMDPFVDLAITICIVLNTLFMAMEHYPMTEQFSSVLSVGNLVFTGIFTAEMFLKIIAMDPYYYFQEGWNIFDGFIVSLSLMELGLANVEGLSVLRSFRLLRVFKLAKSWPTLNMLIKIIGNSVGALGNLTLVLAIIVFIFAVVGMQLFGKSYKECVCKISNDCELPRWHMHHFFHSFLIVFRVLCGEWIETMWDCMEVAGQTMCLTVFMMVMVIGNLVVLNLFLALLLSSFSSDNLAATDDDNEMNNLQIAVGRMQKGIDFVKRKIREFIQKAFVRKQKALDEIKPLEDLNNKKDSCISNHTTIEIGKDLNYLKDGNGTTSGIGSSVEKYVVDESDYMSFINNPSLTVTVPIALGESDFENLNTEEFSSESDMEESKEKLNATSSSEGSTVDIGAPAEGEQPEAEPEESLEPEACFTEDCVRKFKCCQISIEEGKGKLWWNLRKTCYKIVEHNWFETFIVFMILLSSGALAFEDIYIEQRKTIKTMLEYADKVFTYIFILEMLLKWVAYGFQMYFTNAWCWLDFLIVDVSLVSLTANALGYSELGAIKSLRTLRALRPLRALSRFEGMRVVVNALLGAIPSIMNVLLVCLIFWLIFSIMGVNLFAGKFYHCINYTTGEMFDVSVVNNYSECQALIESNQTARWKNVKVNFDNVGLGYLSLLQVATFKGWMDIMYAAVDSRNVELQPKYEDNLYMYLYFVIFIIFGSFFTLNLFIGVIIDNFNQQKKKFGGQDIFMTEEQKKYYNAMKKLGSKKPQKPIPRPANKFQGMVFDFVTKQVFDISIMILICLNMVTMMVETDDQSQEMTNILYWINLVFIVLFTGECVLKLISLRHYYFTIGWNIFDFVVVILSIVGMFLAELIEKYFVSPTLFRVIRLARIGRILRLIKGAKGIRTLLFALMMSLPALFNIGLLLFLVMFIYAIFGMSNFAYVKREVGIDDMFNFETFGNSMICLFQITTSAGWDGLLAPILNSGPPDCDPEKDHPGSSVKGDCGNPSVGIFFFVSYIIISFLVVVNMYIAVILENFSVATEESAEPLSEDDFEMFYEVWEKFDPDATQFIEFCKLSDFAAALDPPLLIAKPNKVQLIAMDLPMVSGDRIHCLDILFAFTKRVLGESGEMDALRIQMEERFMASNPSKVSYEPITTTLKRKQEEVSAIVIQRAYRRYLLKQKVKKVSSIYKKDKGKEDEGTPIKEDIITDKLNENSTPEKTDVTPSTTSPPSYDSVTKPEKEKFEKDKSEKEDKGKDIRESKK", "experiment": "rat Nav1.2 channel assay: competitive inhibition of 125H-TIIIA from rat brain homogenate", "details": "single concentration 10 μM", "experimental": "A homogeneous assay was used to determine the ability of compounds to act as inhibitors of the rat sodium channel 1.2 (rNav1.2) as measured by competitive inhibition of ^125H-TIIIA from rat brain homogenate.\nTotal assay volume was 80 μL (20 μL competing ligand, 20 μL, SPA beads, 20 μL rat brain homogenate and 20 μL iodinated ligand). Assay buffer used was HEPES (20 mM pH7.2), MgCl2 (75 mM), EDTA (0.2 mM), EGTA (0.2 mM), BSA (0.1%) and 2% diluted protease inhibitors (Roche cat #1826145). Peptides were initially screened at a single concentration of 10 μM. […] The competing ligands were added to the assay plate followed by Flashblue GPCR scintillating beads at a concentration of 100 μg/well (Perkin Elmer cat #FBB001), rat brain membrane and 30 pM ^125H-TIIIA. After the addition of all reagents the plate was sealed and incubated at RT for 1 h with shaking. The plate was then counted on a Wallac Microbeta instrument."}, "[2]": {"target": "T2, human norepinephrine transporter (hNET) (Homo sapiens, UniProt P23975)", "T2 construct": "purchased Perkin Elmer Life Sciences RBHNETM400UA", "T2 sequence (P23975 whole entry)": "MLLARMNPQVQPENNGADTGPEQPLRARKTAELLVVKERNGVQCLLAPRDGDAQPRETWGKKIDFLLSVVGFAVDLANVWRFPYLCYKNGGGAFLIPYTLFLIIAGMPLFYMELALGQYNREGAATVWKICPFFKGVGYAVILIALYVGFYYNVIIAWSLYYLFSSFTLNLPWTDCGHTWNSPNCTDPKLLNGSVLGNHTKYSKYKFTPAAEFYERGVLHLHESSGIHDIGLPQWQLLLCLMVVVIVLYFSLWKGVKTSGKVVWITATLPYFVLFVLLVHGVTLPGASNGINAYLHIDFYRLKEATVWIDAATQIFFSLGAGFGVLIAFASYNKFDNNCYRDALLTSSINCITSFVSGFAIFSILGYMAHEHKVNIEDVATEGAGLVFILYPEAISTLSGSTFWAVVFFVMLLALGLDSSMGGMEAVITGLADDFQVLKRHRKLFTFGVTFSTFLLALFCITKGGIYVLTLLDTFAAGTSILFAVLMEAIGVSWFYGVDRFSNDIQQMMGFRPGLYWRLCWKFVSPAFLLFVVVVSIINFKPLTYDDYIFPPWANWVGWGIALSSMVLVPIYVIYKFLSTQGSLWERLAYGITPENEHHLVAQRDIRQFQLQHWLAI", "details": "single concentration 10 μM, 3H-nisoxetine displacement", "protocol": "The ability of compounds to act as inhibitors of the human norepinephrine transporter (hNET) was measured by competitive inhibition of ^3H-nisoxetine from membrane expressing hNET.\nTotal assay volume 150 μL (50 μL peptide conjugate, 50 μL tritiated compound and 50 μL membrane) with each data point performed in triplicate. Assay buffer used was TrisHCl (50 mM, pH 7.4), NaCl (120 mM) and KCl (5 mM). Peptide conjugates were initially screened at a single concentration of 10 μM. […] After the addition of the membrane the assay was incubated for 1 h at RT after which the reaction was filtered onto GF filtermats B (Perkin Elmer cat #1450-521) pretreated with 0.6% PEI using a Tomtec cell harvester and washed 3 times using wash buffer (20 mM HEPES pH 7.4, 125 mM NaCl @ 4° C.). Filtermats were then dried, placed in a filter bag, 9 mL betaplate scintillant (Perkin Elmer cat #1205-440) added and filtermats counted on a Wallac Microbeta instrument."}, "[3]": {"target": "T3, human delta2 Opioid Receptor (hδ2OR) (Homo sapiens, UniProt P41143)", "T3 construct": "purchased Perkin Elmer Life Sciences RPNQ001", "T3 sequence (P41143 whole entry)": "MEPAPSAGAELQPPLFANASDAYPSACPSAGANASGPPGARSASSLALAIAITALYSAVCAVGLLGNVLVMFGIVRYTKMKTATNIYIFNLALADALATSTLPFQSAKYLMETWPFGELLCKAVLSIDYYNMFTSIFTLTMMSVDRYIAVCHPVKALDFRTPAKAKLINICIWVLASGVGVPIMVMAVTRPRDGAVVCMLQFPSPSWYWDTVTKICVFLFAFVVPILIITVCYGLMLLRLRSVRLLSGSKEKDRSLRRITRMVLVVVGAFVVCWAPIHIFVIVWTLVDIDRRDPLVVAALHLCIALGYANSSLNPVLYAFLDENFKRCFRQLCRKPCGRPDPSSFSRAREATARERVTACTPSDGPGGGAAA", "experiment": "hδ2OR assay: competitive inhibition of 3H-Naltrindole from membrane expressing hδ2OR", "details": "single concentration 10 μM", "experimental": "A homogeneous assay was used to determine the ability of compounds to act as inhibitors of the hδ2OR as measured by competitive inhibition of ^3H-Naltrindole from membrane expressing hδ2OR.\nTotal assay volume was 80 μL (20 μL competing ligand, 20 μL SPA beads, 20 μL, membrane and 20 μL tritiated ligand). Assay buffer used was Tris HCl (50 mM, pH 7.4), MgCl2 (5 mM) and BSA (0.1%). Peptides were initially screened at a single concentration of 10 μM. Confirmation of any hits was performed using full dose response of the peptide using various concentrations (10^−4 to 10^−11M) or control ligand (Naltriben). The competing ligands were added to the assay plate followed by SPA beads at a concentration of 100 μg/well (GE Healthcare, Amersham Cat. #FBB001) and […] (Perkin Elmer Life Sciences Cat #RPNQ001). This was followed by 1.6 nM […] [for a final concentration 0.4 nM] (Perkin Elmer Cat #NET1065), after which the plate was sealed and incubated at RT for 1 hr with shaking. The plate was then counted on a Wallac Microbeta instrument."}}, "note": "*1 amine or outer side, *2 acyl side, *3 side chain or, on linkers, in order; H or OH if unused. Bridges are numbered along the chain shown (N, C = ends). Where no end group is shown, it is not given here. [ ]: non-standard residue; d: D form. The star is where a group is joined. 12302 = turn inducer derived from (2S,4R)-Fmoc-4-amino-1-BOC-pyrrolidine-2-carboxylic acid, O=C([C@@H]1C[C@@H](N[*:1])CN1[*:3])[*:2]; Isovaleryl = CC(C)CC(=O)*"}
{"substance": "6 (CV[H2NNH:CHNH(CH2)3CO]KC; disulfide 1-5 (inferred); not fully specified) [compound 6]", "values": [{"measurement": "% inhib @ 10 μM", "setting": "[1]", "value": ">70", "unit": "%"}, {"measurement": "% inhib @ 10 μM", "setting": "[2]", "value": 94, "unit": "%"}]}
{"substance": "46 (CF[12302](cyclohex‑CH2—CO)YC; disulfide 1-5 (inferred)) [compound 46]", "values": [{"measurement": "% inh @ 10 μM", "setting": "[3]", "value": ">80", "unit": "%"}]}
{"substance": "47 (CF[12302](Isovaleryl)YC; disulfide 1-5 (inferred)) [compound 47]", "values": [{"measurement": "% inh @ 10 μM", "setting": "[3]", "value": ">80", "unit": "%"}]}
